Reference: article PMC2884070

Biological target: GST-CypA (cyclophilin A) (human) (UniProt P62937)
Assay: radioligand binding

GST-CypA (cyclophilin A) (human), sequence (P62937 whole entry): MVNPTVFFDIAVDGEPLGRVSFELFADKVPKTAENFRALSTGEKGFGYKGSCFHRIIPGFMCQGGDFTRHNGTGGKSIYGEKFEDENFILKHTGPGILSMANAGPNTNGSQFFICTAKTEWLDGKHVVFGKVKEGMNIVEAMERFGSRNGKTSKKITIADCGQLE

| Substance | Kd |
| --- | --- |
| NS5A Con1 D320E-His (full length) (natural protein) | 124 µM |
| full-length NS5A MD2b-1-His (genotype 2b) (natural protein) | 112 µM |
